B1: HA-tagged UL97, wild type, full length (pCGN-HA-UL97) [human cytomegalovirus (HCMV)] / Flag-tagged 14-3-3 γ [human] (parent complex)
chain 1: MSSALRSRARSASLGTTTQGWDPPPLRRPSRARRRQWMREAAQAAAQAAVQAAQAAAAQVAQAHVDENEVVDLMADEAGGGVTTLTTLSSVSTTTVLGHATFSACVRSDVMRDGEKEDAASDKENLRRPVVPSTSSRGSAASGDGYHGLRCRETSAMWSFEYDRDGDVTSVRRALFTGGSDPSDSVSGVRGGRKRPLRPPLVSLARTPLCRRRVGGVDAVLEENDVELRAESQDSAVASGPGRIPQPLSGSSGEESATAVEADSTSHDDVHCTCSNDQIITTSIRGLTCDPRMFLRLTHPELCELSISYLLVYVPKEDDFCHKICYAVDMSDESYRLGQGSFGEVWPLDRYRVVKVARKHSETVLTVWMSGLIRTRAAGEQQQPPSLVGTGVHRGLLTATGCCLLHNVTVHRRFHTDMFHHDQWKLACIDSYRRAFCTLADAIKFLNHQCRVCHFDITPMNVLIDVNPHNPSEIVRAALCDYSLSEPYPDYNERCVAVFQETGTARRIPNCSHRLRECYHPAFRPMPLQKLLICDPHARFPVAGLRRYCMSELSALGNVLGFCLMRLLDRRGLDEVRMGTEALLFKHAGAACRALENGKLTHCSDACLLILAAQMSYGACLLGEHGAALVSHTLRFVEAKMSSCRVRAFRRFYHECSQTMLHEYVRKNVERLLATSDGLYLYNAFRRTTSIICEEDLDGDCRQLFPE
chain 2: MVDREQLVQKARLAEQAERYDDMAAAMKNVTELNEPLSNEERNLLSVAYKNVVGARRSSWRVISSIEQKTSADGNEKKIEMVRAYREKIEKELEAVCQDVLSLLDNYLIKNCSETQYESKVFYLKMKGDYYRYLAEVATGEKRATVVESSEKAYSEAHEISKEHMQPTHPIRLGLALNYSVFYYEIQNAPEQACHLAKTAFDDAIAELDTLNEDSYKDSTLIMQLLRDNLTLWTSDQQDDDGGEGNN
B2: HA-tagged UL97, wild type, full length (pCGN-HA-UL97) [human cytomegalovirus (HCMV)] / Flag-tagged 14-3-3 β [human] (parent complex)
chain 1: B1 chain 1
chain 2: MTMDKSELVQKAKLAEQAERYDDMAAAMKAVTEQGHELSNEERNLLSVAYKNVVGARRSSWRVISSIEQKTERNEKKQQMGKEYREKIEAELQDICNDVLELLDKYLIPNATQPESKVFYLKMKGDYFRYLSEVASGDNKQTTVSNSQQAYQEAFEISKKEMQPTHPIRLGLALNFSVFYYEILNSPEKACSLAKTAFDEAIAELDTLNEESYKDSTLIMQLLRDNLTLWTSENQGDEGDAGEGEN
B3: HA-tagged UL97, wild type, full length (pCGN-HA-UL97) [human cytomegalovirus (HCMV)] / Flag-tagged 14-3-3 ε [human] (parent complex)
chain 1: B1 chain 1
chain 2: MDDREDLVYQAKLAEQAERYDEMVESMKKVAGMDVELTVEERNLLSVAYKNVIGARRASWRIISSIEQKEENKGGEDKLKMIREYRQMVETELKLICCDILDVLDKHLIPAANTGESKVFYYKMKGDYHRYLAEFATGNDRKEAAENSLVAYKAASDIAMTELPPTHPIRLGLALNFSVFYYEILNSPDRACRLAKAAFDDAIAELDTLSEESYKDSTLIMQLLRDNLTLWTSDMQGDGEEQNKEALQDVEDENQ
B4: HA-tagged UL97, wild type, full length (pCGN-HA-UL97) [human cytomegalovirus (HCMV)] / Flag-tagged 14-3-3 θ [human] (parent complex)
chain 1: B1 chain 1
chain 2: MEKTELIQKAKLAEQAERYDDMATCMKAVTEQGAELSNEERNLLSVAYKNVVGGRRSAWRVISSIEQKTDTSDKKLQLIKDYREKVESELRSICTTVLELLDKYLIANATNPESKVFYLKMKGDYFRYLAEVACGDDRKQTIDNSQGAYQEAFDISKKEMQPTHPIRLGLALNFSVFYYEILNNPELACTLAKTAFDEAIAELDTLNEDSYKDSTLIMQLLRDNLTLWTSDSAGEECDAAEGAEN
B5: HA-tagged UL97, wild type, full length (pCGN-HA-UL97) [human cytomegalovirus (HCMV)] / Flag-tagged 14-3-3 η [human] (parent complex)
chain 1: B1 chain 1
chain 2: MGDREQLLQRARLAEQAERYDDMASAMKAVTELNEPLSNEDRNLLSVAYKNVVGARRSSWRVISSIEQKTMADGNEKKLEKVKAYREKIEKELETVCNDVLSLLDKFLIKNCNDFQYESKVFYLKMKGDYYRYLAEVASGEKKNSVVEASEAAYKEAFEISKEQMQPTHPIRLGLALNFSVFYYEIQNAPEQACLLAKQAFDDAIAELDTLNEDSYKDSTLIMQLLRDNLTLWTSDQQDEEAGEGN

Variants of: B1
Assay: co-immunoprecipitation (IP anti-HA, Western blot quantification); U-2 OS cells; WT UL97 0.6 μg, mutant 1.2 μg expression vector; 1 μg Flag-14-3-3 plasmid; read off a plot
chain 1 K355Q gave a ratio to parent of about 0.62.
chain 1 S13A was tested, and the ratio to parent was about 0.07.

Variants of: B2
Assay: as above
chain 1 K355Q gave a ratio to parent of about 0.45.
For chain 1 S13A, the ratio to parent was about 0.14.

Variants of: B3
Assay: as above
With chain 1 K355Q the ratio to parent was about 0.42.
In the case of chain 1 S13A, the ratio to parent is reported as about 0.06.

Variants of: B4
Assay: as above
Work on chain 1 S13A yielded a ratio to parent of about 0.05.
chain 1 K355Q was tested, and the ratio to parent was about 0.2.

Variants of: B5
Assay: as above
Work on chain 1 S13A yielded a ratio to parent of about 0.17.
For chain 1 K355Q, the ratio to parent was about 0.32.
